Source: patent US20190075806A1, “PROTEINASE B AND LACTASE SOLUTION USING ITS PROPERTIES AND METHOD FOR PRODUCING THE SAME” (GODO SHUSEI CO., LTD., priority 2016, published 2019)

Biological target: neutral lactase (GODO-YNL2; unfragmented high molecular fraction F-1, about 120 kDa) (yeast, Kluyveromyces genus) (UniProt P00723)
Assay: cell-based or functional assay

neutral lactase (GODO-YNL2; unfragmented high molecular fraction F-1, about 120 kDa) (yeast, Kluyveromyces genus), sequence (P00723 whole entry, the tested form may be a part): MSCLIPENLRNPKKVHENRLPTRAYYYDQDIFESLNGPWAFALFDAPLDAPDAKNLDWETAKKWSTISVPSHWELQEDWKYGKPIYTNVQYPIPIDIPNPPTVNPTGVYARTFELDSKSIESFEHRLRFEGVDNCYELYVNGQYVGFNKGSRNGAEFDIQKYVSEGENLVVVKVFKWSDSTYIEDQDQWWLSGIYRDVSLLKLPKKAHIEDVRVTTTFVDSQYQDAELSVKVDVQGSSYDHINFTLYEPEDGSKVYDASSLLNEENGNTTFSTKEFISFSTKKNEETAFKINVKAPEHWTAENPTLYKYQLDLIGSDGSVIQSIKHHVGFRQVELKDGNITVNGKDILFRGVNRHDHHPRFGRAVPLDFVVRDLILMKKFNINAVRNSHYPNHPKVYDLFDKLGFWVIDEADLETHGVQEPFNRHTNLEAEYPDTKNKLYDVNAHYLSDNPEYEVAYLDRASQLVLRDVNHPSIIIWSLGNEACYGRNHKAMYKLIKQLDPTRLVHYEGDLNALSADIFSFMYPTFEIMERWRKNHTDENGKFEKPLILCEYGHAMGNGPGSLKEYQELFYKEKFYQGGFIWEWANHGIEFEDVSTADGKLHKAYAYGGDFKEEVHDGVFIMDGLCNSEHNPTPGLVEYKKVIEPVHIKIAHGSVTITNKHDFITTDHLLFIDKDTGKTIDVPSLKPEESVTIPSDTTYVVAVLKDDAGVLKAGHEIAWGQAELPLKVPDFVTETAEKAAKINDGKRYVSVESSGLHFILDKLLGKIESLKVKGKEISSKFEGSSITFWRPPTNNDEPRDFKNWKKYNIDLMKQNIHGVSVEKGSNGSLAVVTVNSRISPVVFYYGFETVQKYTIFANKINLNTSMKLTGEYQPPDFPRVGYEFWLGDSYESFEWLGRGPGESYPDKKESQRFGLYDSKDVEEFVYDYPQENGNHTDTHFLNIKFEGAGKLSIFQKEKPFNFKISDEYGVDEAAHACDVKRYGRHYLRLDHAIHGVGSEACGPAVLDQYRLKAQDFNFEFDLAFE

proteinase B derived from Kluyveromyces lactis (mature enzyme)
amount of PrB not causing fragmentation of lactase (30° C., 20 hours, SDS-PAGE): 0.26 ng per NLU
